This assay concerns the target recombinant HLA-E-His protein (human) (UniProt P13747). In words: ELISA: the chimeric protein itself was coated in a 1:3 titration (the x axis is its coating concentration), HLA-E-His (Novus NBP2-47435PEP) was added, detected with Anti-6x-His-HRP (Abcam Ab1187). (An ELISA detects its analyte on a solid surface through an enzyme-linked reagent.)

Consider “hSLAMF6-Fc-NKG2A chimeric protein (from UniProt Q96DU3 22-226; P26715 94-233) (Fc fusion)”, for which the EC50 (read off the curve) (in general, the concentration that produces a half-maximal response) stood at 6 µg/mL.

For the substance “hTGFBR2-Fc-NKG2A chimeric protein (Fc fusion)”, the half-maximal effective concentration (EC50 (read off the curve)) is 5 µg/mL.

The values are drawn from patent US20230048633A1.
